Measured values reported in patent publication US20140072613A1 (published 2014).

Tests used:
Assay in all cases: cell-based or functional assay
[1] = molecular target: MEK1(h) (human, UniProt Q02750 1-393)
[2] = molecular target: T1, TAO2(h) (human, UniProt Q9UL54 1-314, limits assumed)
T1 sequence (looked up): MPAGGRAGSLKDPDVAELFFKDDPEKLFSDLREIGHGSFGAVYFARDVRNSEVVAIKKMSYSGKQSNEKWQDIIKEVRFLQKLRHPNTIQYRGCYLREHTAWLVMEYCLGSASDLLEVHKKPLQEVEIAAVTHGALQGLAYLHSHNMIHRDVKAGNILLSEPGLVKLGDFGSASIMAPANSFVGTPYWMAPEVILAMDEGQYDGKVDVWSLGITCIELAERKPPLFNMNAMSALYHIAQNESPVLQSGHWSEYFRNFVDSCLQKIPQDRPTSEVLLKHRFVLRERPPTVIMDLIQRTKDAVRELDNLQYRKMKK

[3] = molecular target: T2, Flt3(h) (human, UniProt P36888 564-993, limits assumed)
T2 sequence (looked up): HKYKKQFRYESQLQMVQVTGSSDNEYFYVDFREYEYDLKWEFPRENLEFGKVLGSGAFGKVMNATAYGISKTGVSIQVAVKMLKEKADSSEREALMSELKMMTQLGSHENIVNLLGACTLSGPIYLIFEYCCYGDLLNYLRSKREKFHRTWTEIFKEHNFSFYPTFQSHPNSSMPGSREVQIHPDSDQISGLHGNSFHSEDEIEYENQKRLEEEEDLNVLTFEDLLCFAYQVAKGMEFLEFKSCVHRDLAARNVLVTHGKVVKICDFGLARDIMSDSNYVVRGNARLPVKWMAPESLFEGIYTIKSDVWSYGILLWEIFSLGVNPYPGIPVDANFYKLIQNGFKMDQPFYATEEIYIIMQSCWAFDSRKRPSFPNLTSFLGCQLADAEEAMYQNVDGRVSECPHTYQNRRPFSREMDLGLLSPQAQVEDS

[4] = molecular target: CDK2/cyclinE(h) (human, UniProt P24941 1-298; P24864 1-410)
[5] = molecular target: PKCγ(h) (human, UniProt P05129 1-697)
[6] = molecular target: MLK1(h) (human, UniProt P80192 132-413, limits assumed)
[7] = molecular target: T3, TAO3(h) (human, UniProt Q9H2K8 1-314, limits assumed)
T3 sequence (looked up): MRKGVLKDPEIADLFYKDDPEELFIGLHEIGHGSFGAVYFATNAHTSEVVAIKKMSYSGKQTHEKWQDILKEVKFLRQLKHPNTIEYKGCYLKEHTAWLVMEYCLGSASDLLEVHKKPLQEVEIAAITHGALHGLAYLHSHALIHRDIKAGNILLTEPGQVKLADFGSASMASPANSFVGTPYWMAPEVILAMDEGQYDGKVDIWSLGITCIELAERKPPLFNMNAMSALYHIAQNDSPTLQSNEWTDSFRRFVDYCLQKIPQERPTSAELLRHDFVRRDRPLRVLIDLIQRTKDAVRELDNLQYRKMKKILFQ

[8] = molecular target: BTK(R28H)(h) (human, UniProt Q06187 1-659)
[9] = molecular target: Met(D1246H)(h) (human, UniProt P08581-2 974-1408, limits assumed)
[10] = molecular target: SAPK2b(h) (human, UniProt Q15759 1-364)
[11] = molecular target: CDK7/cyclinH/MAT1(h) (human, UniProt P50613 1-346; P51946 1-323; P51948 1-309)
[12] = molecular target: Src(1-530)(h) (human, UniProt P12931 1-530)
[13] = molecular target: Snk(h) (human, UniProt Q9NYY3 1-685, limits assumed)
[14] = molecular target: MLCK(h) (human)
[15] = molecular target: SAPK2a(T106M)(h) (human, UniProt Q16539 1-360)
[16] = molecular target: NEK6(h) (human, UniProt Q9HC98 1-313)
[17] = molecular target: Hck(h) activated (human, UniProt P08631 251-518, limits assumed)
[18] = molecular target: T4, PKCε(h) (human, UniProt Q02156 1-737)
T4 sequence (looked up): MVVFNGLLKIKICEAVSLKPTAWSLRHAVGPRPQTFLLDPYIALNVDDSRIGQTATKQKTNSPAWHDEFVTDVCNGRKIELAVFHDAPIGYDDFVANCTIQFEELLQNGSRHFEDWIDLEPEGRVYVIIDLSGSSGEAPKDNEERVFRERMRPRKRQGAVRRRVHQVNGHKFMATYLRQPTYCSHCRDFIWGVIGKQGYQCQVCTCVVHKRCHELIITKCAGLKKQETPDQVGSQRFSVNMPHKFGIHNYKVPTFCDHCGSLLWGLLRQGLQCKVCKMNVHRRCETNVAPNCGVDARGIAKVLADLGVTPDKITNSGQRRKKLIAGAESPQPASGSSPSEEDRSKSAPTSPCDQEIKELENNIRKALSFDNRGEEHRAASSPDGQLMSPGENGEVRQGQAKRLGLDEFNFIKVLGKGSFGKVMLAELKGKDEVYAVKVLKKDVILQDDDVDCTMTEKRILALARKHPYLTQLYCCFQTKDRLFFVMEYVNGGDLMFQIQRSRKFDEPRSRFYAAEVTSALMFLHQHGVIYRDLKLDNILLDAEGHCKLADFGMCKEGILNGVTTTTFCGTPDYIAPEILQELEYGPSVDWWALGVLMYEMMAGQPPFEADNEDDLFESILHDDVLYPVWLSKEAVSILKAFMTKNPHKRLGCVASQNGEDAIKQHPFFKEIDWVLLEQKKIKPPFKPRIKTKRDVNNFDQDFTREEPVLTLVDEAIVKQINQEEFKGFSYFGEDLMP

[19] = molecular target: EGFR(L861Q)(h) (human, UniProt P00533 696-1210, limits assumed)

B1: MMI-0300 (peptide)
peptide: FAKLAARLYRKALARQLGVAA
B1 was tested, and the “% activity, 100 µM” value [1] was 77%, the “% activity, 100 µM” value [2] was 70% and the “% activity, 100 µM” value [3] was 84%. The “% activity, 100 µM” value [4] was 94%, the “% activity, 100 µM” value [5] was 89% and the “% activity, 100 µM” value [6] was 40%. For the same binder, the “% activity, 100 µM” value [7] was 77%, the “% activity, 100 µM” value [8] was 74% and the “% activity, 100 µM” value [9] was 125%. For the same binder, the “% activity, 100 µM” value [10] was 81%, the “% activity, 100 µM” value [11] was 65% and the “% activity, 100 µM” value [12] was 23%. The “% activity, 100 µM” value [13] was 114%, the “% activity, 100 µM” value [14] was 2% and the “% activity, 100 µM” value [15] was 97%. For the same binder, the “% activity, 100 µM” value [16] was 82%, the “% activity, 100 µM” value [17] was 82% and the “% activity, 100 µM” value [18] was 79%. For the same binder, the “% activity, 100 µM” value [19] was 25%.

B2: MMI-0400 (peptide)
peptide: KAFAKLAARLYRKALARQLGVAA
B2 was tested, and the “% activity, 100 µM” value [1] was 77%, the “% activity, 100 µM” value [2] was 74% and the “% activity, 100 µM” value [3] was 18%. For the same binder, the “% activity, 100 µM” value [4] was 83%, the “% activity, 100 µM” value [5] was 79% and the “% activity, 100 µM” value [6] was 33%. The “% activity, 100 µM” value [7] was 67%, the “% activity, 100 µM” value [8] was 24% and the “% activity, 100 µM” value [9] was 68%. The “% activity, 100 µM” value [10] was 82%, the “% activity, 100 µM” value [11] was 47% and the “% activity, 100 µM” value [12] was 19%. For the same binder, the “% activity, 100 µM” value [13] was 131%, the “% activity, 100 µM” value [14] was 1% and the “% activity, 100 µM” value [15] was 99%. For the same binder, the “% activity, 100 µM” value [16] was 85%, the “% activity, 100 µM” value [17] was 81% and the “% activity, 100 µM” value [18] was 59%. For the same binder, the “% activity, 100 µM” value [19] was 22%.
